Data published in PMC11118385 (bioRxiv, 2024).
Changes are numbered by the printed parent chain. In names and notes the source's numbering stands.

Key:
cryo-EM structure = molecular target: the molecule itself; assay: cryo-EM structure
[1] = molecular target: human mitochondrial Hsp70 (mortalin) R126W mutant (human, UniProt P38646 47-679, R126W); assay: cryo-EM structure
Chain of human mitochondrial Hsp70 (mortalin) R126W mutant (P38646 47-679 R126W): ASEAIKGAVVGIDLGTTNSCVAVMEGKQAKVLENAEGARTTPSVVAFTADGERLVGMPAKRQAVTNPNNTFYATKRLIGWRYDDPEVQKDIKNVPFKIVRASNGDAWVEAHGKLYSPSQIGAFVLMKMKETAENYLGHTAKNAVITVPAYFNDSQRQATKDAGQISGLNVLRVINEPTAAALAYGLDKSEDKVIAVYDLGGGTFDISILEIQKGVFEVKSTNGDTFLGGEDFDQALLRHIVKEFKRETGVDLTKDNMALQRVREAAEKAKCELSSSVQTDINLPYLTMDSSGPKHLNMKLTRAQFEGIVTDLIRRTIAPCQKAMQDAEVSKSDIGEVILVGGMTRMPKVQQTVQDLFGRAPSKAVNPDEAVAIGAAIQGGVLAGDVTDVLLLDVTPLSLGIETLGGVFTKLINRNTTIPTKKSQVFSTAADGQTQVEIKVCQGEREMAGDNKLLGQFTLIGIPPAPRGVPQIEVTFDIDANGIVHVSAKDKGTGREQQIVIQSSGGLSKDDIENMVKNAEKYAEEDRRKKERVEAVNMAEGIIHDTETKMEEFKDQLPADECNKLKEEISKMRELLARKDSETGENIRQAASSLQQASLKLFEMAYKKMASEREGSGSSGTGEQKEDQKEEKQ

B1: human GrpEL1 (wild type) (natural protein)
chain: CTATKQKNSGQNLEEDMGQSEQKADPPATEKTLLEEKVKLEEQLKETVEKYKRALADTENLRQRSQKLVEEAKLYGIQAFCKDLLEVADVLEKATQCVPKEEIKDDNPHLKNLYEGLVMTEVQIQKVFTKHGLLKLNPVGAKFDPYEHEALFHTPVEGKEPGTVALVSKVGYKLHGRTLRPALVGVVKEA
stoichiometry N (cryo-EM structure): 2

B2: human GrpEL1 Y173A mutant (natural protein)
chain: B1 chain with Y146A
binding result [1]: binds
